Publication PMC3200314

Molecular target: recombinant neuraminidase ectodomain of A/California/04/2009 (pH1N1) (influenza A virus A/California/04/2009 (H1N1))
Test: SEC

With “recombinant neuraminidase ectodomain of A/California/04/2009 (pH1N1) (domain or fragment)” the stoichiometry N was 4.
